B1: RLLDTTDVYLL (peptide)
peptide: RLLDTTDVYLL
B2: YMDGTMSQV (peptide)
peptide: YMDGTMSQV
B3: QLMEKVQDV (peptide)
peptide: QLMEKVQDV
B4: ILLDKSTVL (peptide)
peptide: ILLDKSTVL
B5: VLMDGTLKQV (peptide)
peptide: VLMDGTLKQV
B6: ALYDSTRELL (peptide)
peptide: ALYDSTRELL
B7: TLIDATWLV (peptide)
peptide: TLIDATWLV
B8: SLRDGTEVV (peptide)
peptide: SLRDGTEVV
B9: YVWDRTELL (peptide)
peptide: YVWDRTELL
B10: SQDASLLKV (peptide)
peptide: SQDASLLKV
B11: YIYDGKDMSSL (peptide)
peptide: YIYDGKDMSSL
B12: ALDDYTITF (peptide)
peptide: ALDDYTITF
B13: GLVDGSSVTV (peptide)
peptide: GLVDGSSVTV
B14: AIDDTAARL (peptide)
peptide: AIDDTAARL
B15: ILFDDSVFTL (peptide)
peptide: ILFDDSVFTL
B16: AVDGTDARL (peptide)
peptide: AVDGTDARL
B17: RLLEGDFSL (peptide)
peptide: RLLEGDFSL
B18: FLGPIVDL (peptide)
peptide: FLGPIVDL
B19: KLLDLTVRI (peptide)
peptide: KLLDLTVRI
B20: ILTDITGHDV (peptide)
peptide: ILTDITGHDV
B21: FLLDGTDMFHM (peptide)
peptide: FLLDGTDMFHM
B22: ILDSTTIEI (peptide)
peptide: ILDSTTIEI
B23: NLYNDLTNV (peptide)
peptide: NLYNDLTNV
B24: AVFDQTVTVI (peptide)
peptide: AVFDQTVTVI
B25: SLFAYPLPDV (peptide)
peptide: SLFAYPLPDV
B26: TLDATVVEL (peptide)
peptide: TLDATVVEL
B27: FMNDRSFIL (peptide)
peptide: FMNDRSFIL
B28: AIYHDITGISV (peptide)
peptide: AIYHDITGISV
B29: ALADLTGTVVNL (peptide)
peptide: ALADLTGTVVNL
B30: FLDTSTADV (peptide)
peptide: FLDTSTADV
B31: VLDDTLVIF (peptide)
peptide: VLDDTLVIF
B32: ILFDPDNSSAL (peptide)
peptide: ILFDPDNSSAL
B33: SLLDGSESAKL (peptide)
peptide: SLLDGSESAKL
B34: SLSDVSQAV (peptide)
peptide: SLSDVSQAV
B35: NVDSTILNL (peptide)
peptide: NVDSTILNL
B36: LLDSTAHLL (peptide)
peptide: LLDSTAHLL
B37: LLDATHQI (peptide)
peptide: LLDATHQI
B38: WLIDKSMEL (peptide)
peptide: WLIDKSMEL
B39: FVDEHTIDI (peptide)
peptide: FVDEHTIDI
B40: ILDEAKDISF (peptide)
peptide: ILDEAKDISF
B41: KLEERVYDV (peptide)
peptide: KLEERVYDV
B42: FLDQTDETL (peptide)
peptide: FLDQTDETL
B43: IQDTSHLAV (peptide)
peptide: IQDTSHLAV
B44: FLNLFDHTL (peptide)
peptide: FLNLFDHTL
B45: HLCNHDVSL (peptide)
peptide: HLCNHDVSL
B46: ILYDGSNIQL (peptide)
peptide: ILYDGSNIQL
B47: KTWDQSIAL (peptide)
peptide: KTWDQSIAL
B48: SLYDFTGEQMAA (peptide)
peptide: SLYDFTGEQMAA
B49: FLKDVTAQI (peptide)
peptide: FLKDVTAQI
B50: QLLGRDISL (peptide)
peptide: QLLGRDISL
B51: KLISDMGKDVSA (peptide)
peptide: KLISDMGKDVSA
B52: GLDRTQLVNV (peptide)
peptide: GLDRTQLVNV
B53: SLFDDSFSL (peptide)
peptide: SLFDDSFSL
B54: FLGEDISNFL (peptide)
peptide: FLGEDISNFL
B55: KLLNDLTSI (peptide)
peptide: KLLNDLTSI
B56: SLDISLPNL (peptide)
peptide: SLDISLPNL
B57: SLLFQDITL (peptide)
peptide: SLLFQDITL
B58: FISDFTMTI (peptide)
peptide: FISDFTMTI
B59: ALPQFFNDV (peptide)
peptide: ALPQFFNDV
B60: LLDDQTVTF (peptide)
peptide: LLDDQTVTF
B61: TLDITIVNL (peptide)
peptide: TLDITIVNL
B62: HMIDLTIHL (peptide)
peptide: HMIDLTIHL
B63: SQTDLSPAL (peptide)
peptide: SQTDLSPAL
B64: ILFDLTHRV (peptide)
peptide: ILFDLTHRV
B65: YLFEDISQL (peptide)
peptide: YLFEDISQL
B66: VIDSTLVKV (peptide)
peptide: VIDSTLVKV

The binders below were run against T1, HLA-A*02:01 (human) (assay: UV-ligand exchange, anti-b2m ELISA; peptide exchange yield grade).
T1 construct: MHC monomers first loaded with a UV-sensitive peptide (not identified) that is cleaved and exchanged for the test peptide; captured on streptavidin-coated plates and detected with anti-β2m; also called peptide-receptive MHC molecules; MHC class I
Text: Candidate peptides for T cell based therapies according to the present invention were further tested for their MHC binding capacity (affinity). The individual peptide-MHC complexes were produced by UV-ligand exchange, where a UV-sensitive peptide is cleaved upon UV-irradiation and exchanged with the peptide of interest as analyzed. Only peptide candidates that can effectively bind and stabilize the peptide-receptive MHC molecules prevent dissociation of the MHC complexes. To determine the yield of the exchange reaction, an ELISA was performed based on the detection of the light chain (β2m) of stabilized MHC complexes. The assay was performed as generally described in Rodenko et al. (Rodenko et al., 2006).
96 well MAXISorp plates (NUNC) were coated over night with 2 μg/ml streptavidin in PBS at room temperature, washed 4× and blocked for 1 h at 37° C. in 2% BSA containing blocking buffer. Refolded HLA-A*02:01/MLA-001 monomers served as standards, covering the range of 15-500 ng/ml. Peptide-MHC monomers of the UV-exchange reaction were diluted 100-fold in blocking buffer. Samples were incubated for 1 h at 37° C., washed four times, incubated with 2 μg/ml HRP conjugated anti-β2m for 1h at 37° C., washed again and detected with TMB solution that is stopped with […]. Absorption was measured at 450 nm. Candidate peptides that show a high exchange yield (preferably higher than 50%, most preferred higher than 75%) are generally preferred for a generation and production of antibodies or fragments thereof, and/or T cell receptors or fragments thereof, as they show sufficient avidity to the MHC molecules and prevent dissociation of the MHC complexes.
Binder B1 has a peptide exchange yield of at least 75%. B2 gave a peptide exchange yield of 50 to 75%. B3 was tested, and the peptide exchange yield was 50 to 75%. Work on B4 yielded a peptide exchange yield of at least 75%. B5 was tested, and the peptide exchange yield was at least 75%. With B6 the peptide exchange yield was at least 75%. Binder B7 has a peptide exchange yield of at least 75%. With B8 the peptide exchange yield was 50 to 75%. B9 was tested, and the peptide exchange yield was at least 75%. Binder B10 has a peptide exchange yield of 50 to 75%. Work on B11 yielded a peptide exchange yield of 50 to 75%. For B12, the peptide exchange yield was at least 75%. With B13 the peptide exchange yield was at least 75%. B14 gave a peptide exchange yield of 50 to 75%. Work on B15 yielded a peptide exchange yield of at least 75%. Binder B16 has a peptide exchange yield of 50 to 75%. Work on B17 yielded a peptide exchange yield of at least 75%. For B18, the peptide exchange yield was at least 75%. B19 was tested, and the peptide exchange yield was at least 75%. For B20, the peptide exchange yield was 50 to 75%. In the case of B21, the peptide exchange yield is reported as 50 to 75%. For B22, the peptide exchange yield was at least 75%. Binder B23 has a peptide exchange yield of 50 to 75%. Binder B24 has a peptide exchange yield of 50 to 75%. For B25, the peptide exchange yield was at least 75%. In the case of B26, the peptide exchange yield is reported as at least 75%. For B27, the peptide exchange yield was at least 75%. B28 was tested, and the peptide exchange yield was 50 to 75%. Binder B29 has a peptide exchange yield of at least 75%. For B30, the peptide exchange yield was at least 75%. B31 showed a peptide exchange yield of 50 to 75%. Work on B32 yielded a peptide exchange yield of at least 75%. B33 gave a peptide exchange yield of at least 75%. In the case of B34, the peptide exchange yield is reported as 50 to 75%. B35 was tested, and the peptide exchange yield was at least 75%. In the case of B36, the peptide exchange yield is reported as at least 75%. Work on B37 yielded a peptide exchange yield of at least 75%. B38 was tested, and the peptide exchange yield was at least 75%. In the case of B39, the peptide exchange yield is reported as 50 to 75%. For B40, the peptide exchange yield was 50 to 75%. Work on B41 yielded a peptide exchange yield of at least 75%. Binder B42 has a peptide exchange yield of 50 to 75%. For B43, the peptide exchange yield was 50 to 75%. Work on B44 yielded a peptide exchange yield of at least 75%. B45 showed a peptide exchange yield of at least 75%. B46 showed a peptide exchange yield of at least 75%. B47 gave a peptide exchange yield of at least 75%. B48 gave a peptide exchange yield of 50 to 75%. Binder B49 has a peptide exchange yield of at least 75%. B50 gave a peptide exchange yield of at least 75%. B51 was tested, and the peptide exchange yield was 50 to 75%. With B52 the peptide exchange yield was at least 75%. Work on B53 yielded a peptide exchange yield of at least 75%. Work on B54 yielded a peptide exchange yield of at least 75%. B55 showed a peptide exchange yield of at least 75%. Binder B56 has a peptide exchange yield of at least 75%. For B57, the peptide exchange yield was at least 75%. Work on B58 yielded a peptide exchange yield of at least 75%. Work on B59 yielded a peptide exchange yield of at least 75%. B60 gave a peptide exchange yield of 50 to 75%. B61 gave a peptide exchange yield of at least 75%. For B62, the peptide exchange yield was 50 to 75%. For B63, the peptide exchange yield was at least 75%. For B64, the peptide exchange yield was at least 75%. B65 showed a peptide exchange yield of at least 75%. Work on B66 yielded a peptide exchange yield of 50 to 75%.
